We go through 30 molecules from patent publication US20060264378A1 (BIOKINE THERAPEUTICS, published 2006).

One may read the IC50 as the point on the concentration scale where inhibition reaches its midpoint. A higher IC50 goes with lower potency.

The labels stand for the following.
B1: TC14012 (peptide)
peptide: RRXCYXKXPYRXCR
modifications: X at 3 = Nal (L-3-(2-naphthyl)alanine); X at 6 and 12 = Cit (L-citrulline); X at 8 = D-Cit (D-citrulline); disulfide Cys4-Cys13; free N-terminus (H-); C-terminal amide (-NH2)
notes: Tested as acetate salt
B2: TF19 (peptide)
peptide: XRRXCYXKXPYRXCRX
modifications: N-terminal 6-aminohexanoyl (ACA); Nal (L-3-(2-naphthyl)alanine) at 3; Cit (L-citrulline) at 6 and 12; D-Cit (D-citrulline) at 8; disulfide Cys4-Cys13; C-terminal amide (-NH2)
B3: TE14003 (peptide)
peptide: H-RR[2Nal]CYEK[dK]PYR[Cit]CR-OH
modifications: disulfide 4-13 (inferred); not fully specified; printed as H-Arg-Arg-Nal-Cys-Tyr-Glu-Lys-DLys-Pro-Tyr-Arg-Cit-Cys-Arg-OH; also: acetate salt
B4: TE14004 (peptide)
peptide: H-RR[2Nal]CYRE[dK]PYR[Cit]CR-OH
modifications: disulfide 4-13 (inferred); not fully specified; printed as H-Arg-Arg-Nal-Cys-Tyr-Arg-Glu-DLys-Pro-Tyr-Arg-Cit-Cys-Arg-OH; also: acetate salt
B5: TF15 (peptide)
peptide: H-RR[2Nal]CY[Cit]K[dE]PYR[Cit]CR-NH2
modifications: disulfide 4-13; also: reduced CH2-NH bond between residues 1 and 2, acetate salt
B6: TF18 (peptide)
peptide: XRRXCYXKXPYRXCRX
modifications: N-terminal tetramethylguanyl; Nal (L-3-(2-naphthyl)alanine) at 3; Cit (L-citrulline) at 6 and 12; D-Cit (D-citrulline) at 8; disulfide Cys4-Cys13; C-terminal amide (-NH2)

Numbered stars: 1 amine (or outer) side, 2 acyl side, 3 side chain; on linkers, the order of the positions; unused ones are H or OH. Bridge positions count the residues as written; N and C are the ends. Square brackets hold non-standard residues; d marks the D form. Ends that are not written are not given here. * marks the point of attachment. deaminoTMG = tetramethylguanyl on 5-aminopentanoyl (deaminoTMG-APA, formula II); guanyl = guanyl, N-terminal group, N=C(N)*; 2Nal = N[C@@H](Cc1ccc2ccccc2c1)C(=O)O; Glutaryl = O=C(CCCC(=O)[*:2])[*:1]; Benzoyl(4-F) = O=C(c1ccc(F)cc1)*; dCit = NC(=O)NCCC[C@@H](N)C(=O)O; Cit = NC(=O)NCCC[C@H](N)C(=O)O; Suc = O=C(CCC(=O)[*:2])[*:1]; Ahx = NCCCCCC(=O)O; Ava = NCCCCC(=O)O

Sequence of CXCR4 on mouse splenocytes (P70658 whole entry): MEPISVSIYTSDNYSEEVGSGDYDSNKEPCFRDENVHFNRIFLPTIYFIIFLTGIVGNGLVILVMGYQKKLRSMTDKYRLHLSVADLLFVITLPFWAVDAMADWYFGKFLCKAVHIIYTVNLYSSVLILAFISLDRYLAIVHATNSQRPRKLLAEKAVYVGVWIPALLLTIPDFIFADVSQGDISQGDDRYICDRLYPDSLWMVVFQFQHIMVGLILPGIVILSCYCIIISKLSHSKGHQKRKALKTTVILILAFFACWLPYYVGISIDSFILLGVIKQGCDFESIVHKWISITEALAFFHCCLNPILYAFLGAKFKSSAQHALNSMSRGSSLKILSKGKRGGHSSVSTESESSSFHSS

In the first test the target is T1, CXCR4 receptor (human, UniProt P61073 1-352).
T1 construct: whole, on cells; Endogenous receptor on human cells
T1 sequence (P61073 whole entry): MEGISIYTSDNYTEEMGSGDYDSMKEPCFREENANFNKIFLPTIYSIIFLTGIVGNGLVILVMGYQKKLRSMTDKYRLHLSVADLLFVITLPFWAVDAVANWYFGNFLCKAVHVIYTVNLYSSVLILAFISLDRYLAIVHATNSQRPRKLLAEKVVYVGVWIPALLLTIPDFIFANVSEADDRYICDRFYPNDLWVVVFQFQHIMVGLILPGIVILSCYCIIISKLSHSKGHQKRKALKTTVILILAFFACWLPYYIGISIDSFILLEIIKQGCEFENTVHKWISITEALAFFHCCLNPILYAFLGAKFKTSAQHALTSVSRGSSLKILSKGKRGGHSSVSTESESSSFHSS
Kind of test: cell-based or functional assay.
Regarding {Benzoyl(4-F)}-RR[2Nal]CY[Cit]K[dK]PYR[Cit]CR-NH2 (disulfide 4-13; also: acetate salt) [4F-benzoyl-TN14003], the IC50 of inhibition of SDF-1α-induced migration of Jurkat cells (Transwell) turned out to be 0.65 nM.

A further test has as its target CXCR4 on mouse splenocytes (mouse, UniProt P70658 1-359). Kind of test: cell-based or functional assay.
On to {Benzoyl(4-F)}-RR[2Nal]CY[Cit]K[dK]PYR[Cit]CR-NH2 (disulfide 4-13; also: acetate salt) [4F-benzoyl-TN14003], for which the “IC50 of inhibition of SDF-1-induced migration of mouse splenocytes (Transwell)” value turned out to be 0.54 nM.

For another test, the target named is T1, CXCR4 receptor. The experiment in a line: displacement of 125I-CXCL12 from Jurkat cells, filter binding. Here is the method:
50 μL of Jurkat human T-cell leukemia cells (6×10⁶ cells/mL) suspended in buffer (Dulbecco's PBS solution (pH 7.0) containing 0.5% BSA, 20 mM HEPES), 25 μL of test compounds (Table 2: each compound being synthesized in the form of acetate salt) diluted by buffer and 25 μL of 200 p M 125I-CXCL12 solution were respectively dispensed to each well of the plate, and were subjected to fixation reaction for 1 hour at room temperature. After reaction, suction was made toward the reaction solution by 96 well GF/C filter plate, and each well's radioactivity was measured by top count. As the radioactivity index of 100% when the test compound was not added, and 0% when 100 nM of non-radioisotope-labeled CXCL12 was added, the inhibitory activity of each test compound was measured.
(Displacement assays read how much labelled ligand stays bound in the presence of the test substance.)
As to H-RR[2Nal]CYRK[dK]PYE[Cit]CR-OH (disulfide 4-13 (inferred); also: acetate salt) [TE14006], the IC50 came out at 5.6 nM. Molecule B1 displayed an IC50 of 2.7 nM.

In turn, {deaminoTMG-Ava}-R[2Nal]CY[Cit]K[dE]PYR[Cit]CR-NH2 (disulfide 3-12; also: acetate salt) [TF12] showed an IC50 of 4.6 nM.

Regarding Ac-RR[2Nal]CY[Cit]K[dE]PYR[Cit]CR-NH2 (disulfide 4-13; also: acetate salt) [TF1], the IC50 was found to be 11 nM. Still for that read-out and setting: for B2 the value was 4.5 nM; for Glutaryl-R[2Nal]CY[Cit]K[dE]PYR[Cit]CR-NH2 (disulfide 3-12; also: acetate salt) [TF11], 630 nM. {2‑desamino‑arginyl}-R[2Nal]CY[Cit]K[dE]PYR[Cit]CR-NH2 (disulfide 3-12; also: acetate salt) [TF8] yielded an IC50 of 8.2 nM. On the same count and under the same terms, for {Benzoyl(4-F)}-RR[2Nal]CY[Cit]K[dE]PYR[Cit]CR-NH2 (disulfide 4-13; also: acetate salt) [TF5] the value was 2.8 nM; for guanyl-RR[2Nal]CY[Cit]K[dE]PYR[Cit]CR-NH2 (disulfide 4-13; also: acetate salt) [TF2], 3.3 nM. Molecule {5‑aminopentanoyl}-R[2Nal]CY[Cit]K[dE]PYR[Cit]CR-NH2 (disulfide 3-12; also: acetate salt) [TF7] displayed an IC50 of 5.7 nM. Molecule H-RR[2Nal]CY[Cit]K[dE]PYR[Cit]CR-NH2 (disulfide 4-13; also: acetate salt) [TE14011] showed a half-inhibitory concentration (IC50) of 2.9 nM.

Turning to tetramethylguanyl-RR[2Nal]CY[Cit]K[dE]PYR[Cit]CR-NH2 (disulfide 4-13; also: acetate salt) [TF3], the IC50 was 9.6 nM. H-RR[2Nal]CY[Cit]K[dK]PYR[Cit]CR-NH2 (disulfide 4-13; also: acetate salt, Tested as acetate salt) [TN14003] showed an IC50 of 2.6 nM. Same read-out and setting: for H-RR[2Nal]CY[dE]K[dCit]PYR[Cit]CR-NH2 (disulfide 4-13 (inferred); also: acetate salt) [TE14012] the value was 5.4 nM; for H-RE[2Nal]CYRK[dK]PYR[Cit]CR-OH (disulfide 4-13; also: acetate salt) [TE14002], 680 nM; for B3, 5 nM. The same measure, in the same setting: for Suc-R[2Nal]CY[Cit]K[dE]PYR[Cit]CR-NH2 (disulfide 3-12; also: acetate salt) [TF10] the value was 48 nM; for {nelfinaviryl-Suc}-R[2Nal]CY[Cit]K[dE]PYR[Cit]CR-NH2 (disulfide 3-12; also: acetate salt) [TF13], 21 nM; for {AZT-Glutaryl}-R[2Nal]CY[Cit]K[dE]PYR[Cit]CR-NH2 (disulfide 3-12; also: acetate salt) [TF14], 49 nM. The same measure, in the same setting: for {2‑fluorobenzoyl}-RR[2Nal]CY[Cit]K[dE]PYR[Cit]CR-NH2 (disulfide 4-13; also: acetate salt) [TF6] the value was 3.9 nM; for B4, 6.8 nM.

The molecule tetramethylguanyl-R[2Nal]CY[Cit]K[dE]PYR[Cit]CR-NH2 (disulfide 3-12; also: acetate salt) [TF4] yielded an IC50 of 9.9 nM. On the same count and under the same terms, with [Ahx]RR[2Nal]CYRK[dK]PYR[Cit]CR-OH (disulfide 5-14; also: acetate salt) [TF20] the figure was 3.5 nM; with B5, 95 nM. Same read-out and setting: for H-R[2Nal]CY[Cit]K[dE]PYR[Cit]CR-NH2 (disulfide 3-12; also: acetate salt) [TF17] the value was 79 nM; for guanyl-R[2Nal]CY[Cit]K[dE]PYR[Cit]CR-NH2 (disulfide 3-12; also: acetate salt) [TF9], 250 nM; for B6, 8 nM. {Benzoyl(4-F)}-RR[2Nal]CY[Cit]K[dK]PYR[Cit]CR-NH2 (disulfide 4-13; also: acetate salt) [4F-benzoyl-TN14003] gave an IC50 of 0.99 nM.

Take H-RR[2Nal]CY[dE]K[dE]PYR[Cit]CR-NH2 (disulfide 4-13; also: acetate salt) [TE14013]: the IC50 was determined as 9.3 nM. The molecule H-RR[2Nal]CYRK[dE]PYR[Cit]CR-OH (disulfide 4-13; also: acetate salt) [TE14005] gave an IC50 of 2.2 nM.
